This data set concerns the target YhaM D193A (Staphylococcus aureus JE2 (USA300), UniProt A0A0H2XHZ3 1-313, D193A). Briefly: EMSA; 1 mM Mn2+; 15 nM RNA, 0-30 uM YhaM; partial RNA degradation at high protein; EMSA: 50 mM Na-Tricine pH 8.0, 100 mM KCl, 1 mM MnSO4, 37 C 20 min, 20% TBE native gel. To be noted: protein: recombinant; tags: N-terminal His6 (pMCSG7); label: 5'-6-FAM; single strand.

Consider AGGAAAAAACAUUUUAUAAAGGAGA (ssRNA) [RNA_a], for which the binding result is listed as “binds”.

(Values after article PMC11347170, “Staphylococcal exoribonuclease YhaM destabilizes ribosomes by targeting the mRNA of a hibernation factor”.)
